Drawing on publication PMC11046454, this text covers binding signal (fold vs ssDNA) and Kd for two sequences.

The test system of data set [1] is anti-FITC CAR (E2 scFv, CD8a hinge/TM, 4-1BB, CD3zeta) on CAR-J Jurkat or CAR-T cells (synthetic construct). In words: flow cytometry, CAR-T cells. The note with it: via FITC; Cells 1e6/mL in DPBS, 1% FBS, 5 mM MgCl2, 4 C, 30 min; flow cytometry (pH 6.5 or 7.4 for i-motif; 1 mM ATP where stated).
For data set [2] the test system is unchanged. In words: flow cytometry, CAR-J cells. The note with it: via FITC; Cells 1e6/mL in DPBS, 1% FBS, 5 mM MgCl2, 4 C, 30 min; flow cytometry (pH 6.5 or 7.4 for i-motif; 1 mM ATP where stated).

In turn, “ACATTCCTAAGTCTGAAACATTACAGCTTGCTACACGAGAAGAGCCGCCATAGTA / TTTATCACCAGGCAGTTGACAGTGTAGCAAGCTGTAATAGATGCGAGGGTCCAATAC / TTTCAACTGCCTGGTGATAAAACGACACTACGTGGGAATCTACTATGGCGGCTCTTC / TTTTCAGACTTAGGAATGTGCTTCCCACGTAGTGTCGTTTGTATTGGACCCTCGCAT [FITC-TDN-Cy5]” showed a binding signal (fold vs ssDNA) in data set [1] of 3.
On to “TTTTTTTTTTTTTTTTTTTTTTTTTTTTTTTTTTTTTTTT [FITC-DNA-Cy5]”, for which the Kd in data set [2] was 26.4 nM.
